According to the supplement of paper PMC7125110:
± gives the standard error. Fewer inactive variants are shown than the library holds.

B1: glmS ribozyme (parent)
chain: AUAAAAGCGCCAGAACUACAGAAAUGUAGUUGACGAGGAGGAGGUUUAUCGAAUUUUCGGCGGAUGCCUCCAAA

Legend:
Conditions in all cases: with glucosamine-6-phosphate
glucosamine-6-phosphate [1] = variants of: B1; assay: self-cleavage kobs at 40 uM GlcN6P; higher = faster cleavage; RNA array
Outline: (§1)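 Over ~14 h at 37 °C, tiles were imaged as glucosamine-6-phosphate (40 μM to 10 mM) in HEPES/KCl/Mg(OAc)2 buffer flowed across sequenced MiSeq chips. The chips carried barcoded ribozyme variants transcribed in situ by E. coli RNA polymerase and tracked with a hybridised Cy3 probe. After normalisation to baseline and to non-cleaving reference variants, one- or two-exponential decay fits of per-tile medians gave kobs. kcat and KM followed from weighted Michaelis–Menten fits across concentrations.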

glucosamine-6-phosphate [2] = variants of: B1; assay: self-cleavage kobs at 640 uM GlcN6P; higher = faster cleavage; RNA array
Outline: as §1

glucosamine-6-phosphate [3] = variants of: B1; assay: self-cleavage kobs at 2500 uM GlcN6P; higher = faster cleavage; RNA array
Outline: as §1

glucosamine-6-phosphate [4] = variants of: B1; assay: self-cleavage kobs at 10000 uM GlcN6P; higher = faster cleavage; RNA array
Outline: as §1

glucosamine-6-phosphate [5] = variants of: B1; assay: self-cleavage kobs at 160 uM GlcN6P; higher = faster cleavage; RNA array
Outline: as §1

Variant | self-cleavage kobs at 40 uM GlcN6P (glucosamine-6-phosphate [1]) | self-cleavage kobs at 640 uM GlcN6P (glucosamine-6-phosphate [2]) | self-cleavage kobs at 2500 uM GlcN6P (glucosamine-6-phosphate [3]) | self-cleavage kobs at 10000 uM GlcN6P (glucosamine-6-phosphate [4]) | self-cleavage kobs at 160 uM GlcN6P (glucosamine-6-phosphate [5])
AUAAAAGCGCCAGAACUACAGAAAUGUAGUUGACGAGGAAGAGGUUUAUCGAAUUUUCGGCGCAUGCCUCCAAA | < 1e-05 s⁻¹ | < 1e-05 s⁻¹ | – | – | –
AUAAAAGCGCCAGAACUACAGAAAUGUAGUUGACGAGGACGAGGUUUAUCGAAUUUUCGGCGGAUGGCUCUAAA | < 1e-05 s⁻¹ | – | – | – | –
AUAAAAGCGCCAGAACUACAGAAAUGUAGUUGACGAGGACGAGGUUUAUCGAAGUGUCGGCGGAUGCCUCCAAA | 4.04e-05 ± 1.9e-05 s⁻¹ | – | 0.000625 ± 0.00018 s⁻¹ | 0.000719 ± 0.00012 s⁻¹ | –
AUAAAAGCGCCAGAACUACAGAAAUGUAGUUGACGAGGAAGAGGUUUAUCGAAGUUUCGGCGGAUGCCUCCAAA | 0.00036 ± 6.8e-05 s⁻¹ | 0.0015 ± 0.00038 s⁻¹ | 0.00184 ± 0.00065 s⁻¹ | 0.00643 ± 0.0015 s⁻¹ | –
AUAAAAGCGCCAGAACUACAGAAAUGUAGUUGACGAGGACGAGGUUUAUCUAAUUUUCGGCGGAUGCCUCCAAA | < 1e-05 s⁻¹ | < 1e-05 s⁻¹ | < 1e-05 s⁻¹ | < 1e-05 s⁻¹ | < 1e-05 s⁻¹
AUAAAAGCGCCAGAACUACAGAAAUGUAGUUGACGAGGACGAGGUUUAUCGAAUUUUCUGCGGAUGCAUCAAAA | < 1e-05 s⁻¹ | – | – | – | –
AUAAAAGCGCCAGAACUACAGAAAUGUAGUUGACGAGGAAGAGGUUUAUCGAAUCUUCGGAGGAUGCCUCCAAA | < 1e-05 s⁻¹ | – | – | – | –
AUAAAAGCGCCAGAACUACAGAAAUGUAGUUGACGAGGACGAGGUUUAUCGAAUUUUCGGCGGAUGCCUCCAAA | 0.000161 ± 2.8e-06 s⁻¹ | 0.00123 ± 3.8e-05 s⁻¹ | 0.00453 ± 0.0002 s⁻¹ | – | 0.000388 ± 1.8e-05 s⁻¹
AUAAAAGCGCCAGAACUACAGAAAUGUAGUUGACGAGGAUGAGGUUUAUCGAAUUUUCGGCGGAUGCCUCCAAA | 0.000216 ± 1.5e-05 s⁻¹ | 0.00199 ± 0.0002 s⁻¹ | 0.00539 ± 0.00024 s⁻¹ | – | 0.00045 ± 1.9e-05 s⁻¹
AUAAAAGCGCCAGAACUACAGAAAUGUAGUUGACGAGGACGAGGUUUAUCGAAUUUUCGGCGGAUGCCGCCAAA | < 1e-05 s⁻¹ | < 1e-05 s⁻¹ | – | < 1e-05 s⁻¹ | –
AUAAAAGCGCCAGAACUACAGAAAUGUAGUUGACGAGGACGAGGUUUAUCGAAUUUUCGGCUGAUGCCUCCAAA | < 1e-05 s⁻¹ | < 1e-05 s⁻¹ | < 1e-05 s⁻¹ | < 1e-05 s⁻¹ | < 1e-05 s⁻¹
AUAAAAGCGCCAGAACUACAGAAAUGUAGUUGACGAGGAAGAGGUUUAUCAAAUUUUCGGCGGAUGCCUCCAAA | < 1e-05 s⁻¹ | < 1e-05 s⁻¹ | < 1e-05 s⁻¹ | < 1e-05 s⁻¹ | < 1e-05 s⁻¹
